Assay results published in patent US20140363428A1 (Chugai, published 2014).

target: T1, soluble human FcRn (heterodimer of FcRn alpha chain and beta2-microglobulin) (human, UniProt P55899 24-297; P61769 21-119); experiment: SPR Biacore T100, antibody captured via protein L, hFcRn analyte, pH 7.0, 25 C;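 further: KD derived from kinetic ka and kd fits of sensorgrams, CM4 sensor chip, sodium phosphate NaCl Tween20 running buffer, buffer-only injection used as reference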
T1 construct: Expressed in HEK293H and purified on IgG Sepharose; also called hFcRn

Kd	Binder
52 nM	IgG1-F1125 (antibody, VH3-IgG1 with Fc substitutions (EU numbering) + L(WT)-CK) heavy: QVQLQESGPGLVKPSETLSLTCAVSGHSISHDHAWSWVRQPPGEGLEWIGFISYSGITNYNPSLQGRVTISRDNSKNTLYLQMNSLRAEDTAVYYCARSLARTTAMDYWGEGTLVTVSSASTKGPSVFPLAPSSKSTSGGTAALGCLVKDYFPEPVTVSWNSGALTSGVHTFPAVLQSSGLYSLSSVVTVPSSSLGTQTYICNVNHKPSNTKVDKKVEPKSCDKTHTCPPCPAPELLGGPSVFLFPPKPKDTLYISRTPEVTCVVVDVSHEDPEVKFNWYVDGVEVHNAKTKPREEQYNSTYRVVSVLQVLHQDWLNGKEYKCKVSNKALPAPIEKTISKAKGQPREPQVYTLPPSRDELTKNQVSLTCLVKGFYPSDIAVEWESNGQPENNYKTTPPVLDSDGSFFLYSKLTVDKSRWQQGNVFSCSVMHEALHYHVTQKSLSLSP light: not shown
130 nM	IgG1-F1058 (antibody, VH3-IgG1 with Fc substitutions (EU numbering) + L(WT)-CK) heavy: QVQLQESGPGLVKPSETLSLTCAVSGHSISHDHAWSWVRQPPGEGLEWIGFISYSGITNYNPSLQGRVTISRDNSKNTLYLQMNSLRAEDTAVYYCARSLARTTAMDYWGEGTLVTVSSASTKGPSVFPLAPSSKSTSGGTAALGCLVKDYFPEPVTVSWNSGALTSGVHTFPAVLQSSGLYSLSSVVTVPSSSLGTQTYICNVNHKPSNTKVDKKVEPKSCDKTHTCPPCPAPELLGGPSVFLFPPKPKDTLYISRTPEVTCVVVDVSHEDPEVKFNWYVDGVEVHNAKTKPREEQYNSTYRVVSVLTVLHQDWLNGKEYKCKVSNKALPAPIEKTISKAKGQPREPQVYTLPPSRDELTKNQVSLTCLVKGFYPSDIAVEWESNGEPENNYKTTPPVLDSDGSFFLYSKLTVDKSRWQQGNVFSCSVMHEALHYHVTQKSLSLSP light: not shown
140 nM	IgG1-F1065 (antibody, VH3-IgG1 with Fc substitutions (EU numbering) + L(WT)-CK) heavy: QVQLQESGPGLVKPSETLSLTCAVSGHSISHDHAWSWVRQPPGEGLEWIGFISYSGITNYNPSLQGRVTISRDNSKNTLYLQMNSLRAEDTAVYYCARSLARTTAMDYWGEGTLVTVSSASTKGPSVFPLAPSSKSTSGGTAALGCLVKDYFPEPVTVSWNSGALTSGVHTFPAVLQSSGLYSLSSVVTVPSSSLGTQTYICNVNHKPSNTKVDKKVEPKSCDKTHTCPPCPAPELLGGPSVFLFPPKPKDTLYISRTPEVTCVVVDVSHEDPEVKFNWYVDGVEVHNAKTKPREEQYNSTYRVVSVLTVLHQDWLNGKEYKCKVSNKALPAPIEKTISKAKGQPREPQVYTLPPSRDELTKNQVSLTCLVKGFYPSDIAVEWESNGQPENNYKTTPPVLDSDGSFFLYSKLTVDKSRWQQGNRFSCSVMHEALHYHVTQKSLSLSP light: not shown
130 nM	IgG1-F1064 (antibody, VH3-IgG1 with Fc substitutions (EU numbering) + L(WT)-CK) heavy: QVQLQESGPGLVKPSETLSLTCAVSGHSISHDHAWSWVRQPPGEGLEWIGFISYSGITNYNPSLQGRVTISRDNSKNTLYLQMNSLRAEDTAVYYCARSLARTTAMDYWGEGTLVTVSSASTKGPSVFPLAPSSKSTSGGTAALGCLVKDYFPEPVTVSWNSGALTSGVHTFPAVLQSSGLYSLSSVVTVPSSSLGTQTYICNVNHKPSNTKVDKKVEPKSCDKTHTCPPCPAPELLGGPSVFLFPPKPKDTLYISRTPEVTCVVVDVSHEDPEVKFNWYVDGVEVHNAKTKPREEQYNSTYRVVSVLTVLHQDWLNGKEYKCKVSNKALPAPIEKTISKAKGQPREPQVYTLPPSRDELTKNQVSLTCLVKGFYPSDIAVEWESNGQPENNYKTTPPVLDSDGSFFLYSKLTVDKSRWQQGNEFSCSVMHEALHYHVTQKSLSLSP light: not shown
140 nM	IgG1-F1063 (antibody, VH3-IgG1 with Fc substitutions (EU numbering) + L(WT)-CK) heavy: QVQLQESGPGLVKPSETLSLTCAVSGHSISHDHAWSWVRQPPGEGLEWIGFISYSGITNYNPSLQGRVTISRDNSKNTLYLQMNSLRAEDTAVYYCARSLARTTAMDYWGEGTLVTVSSASTKGPSVFPLAPSSKSTSGGTAALGCLVKDYFPEPVTVSWNSGALTSGVHTFPAVLQSSGLYSLSSVVTVPSSSLGTQTYICNVNHKPSNTKVDKKVEPKSCDKTHTCPPCPAPELLGGPSVFLFPPKPKDTLYISRTPEVTCVVVDVSHEDPEVKFNWYVDGVEVHNAKTKPREEQYNSTYRVVSVLTVLHQDWLNGKEYKCKVSNKALPAPIEKTISKAKGQPREPQVYTLPPSRDELTKNQVSLTCLVKGFYPSDIAVEWESNGQSENNYKTTPPVLDSDGSFFLYSKLTVDKSRWQQGNVFSCSVMHEALHYHVTQKSLSLSP light: not shown
170 nM	IgG1-F1068 (antibody, VH3-IgG1 with Fc substitutions (EU numbering) + L(WT)-CK) heavy: QVQLQESGPGLVKPSETLSLTCAVSGHSISHDHAWSWVRQPPGEGLEWIGFISYSGITNYNPSLQGRVTISRDNSKNTLYLQMNSLRAEDTAVYYCARSLARTTAMDYWGEGTLVTVSSASTKGPSVFPLAPSSKSTSGGTAALGCLVKDYFPEPVTVSWNSGALTSGVHTFPAVLQSSGLYSLSSVVTVPSSSLGTQTYICNVNHKPSNTKVDKKVEPKSCDKTHTCPPCPAPELLGGPSVFLFPPKPKDTLYISRTPEVTCVVVDVSHEDPEVKFNWYVDGVEVHNAKTKPREEQYNSTYRVVSVLTVLHQDWLNGKEYKCKVSNKALPAPIEKTISKAKGQPREPQVYTLPPSRDELTKNQVSLTCLVKGFYPSDIAVEWESNGQPENNYKTTPPVLDSDGSFFLYSKLTVDKSRWQQGNVFRCSVMHEALHYHVTQKSLSLSP light: not shown
140 nM	IgG1-F1060 (antibody, VH3-IgG1 with Fc substitutions (EU numbering) + L(WT)-CK) heavy: QVQLQESGPGLVKPSETLSLTCAVSGHSISHDHAWSWVRQPPGEGLEWIGFISYSGITNYNPSLQGRVTISRDNSKNTLYLQMNSLRAEDTAVYYCARSLARTTAMDYWGEGTLVTVSSASTKGPSVFPLAPSSKSTSGGTAALGCLVKDYFPEPVTVSWNSGALTSGVHTFPAVLQSSGLYSLSSVVTVPSSSLGTQTYICNVNHKPSNTKVDKKVEPKSCDKTHTCPPCPAPELLGGPSVFLFPPKPKDTLYISRTPEVTCVVVDVSHEDPEVKFNWYVDGVEVHNAKTKPREEQYNSTYRVVSVLTVLHQDWLNGKEYKCKVSNKALPAPIEKTISKAKGQPREPQVYTLPPSRDELTKNQVSLTCLVKGFYPSDIAVEWESNGSPENNYKTTPPVLDSDGSFFLYSKLTVDKSRWQQGNVFSCSVMHEALHYHVTQKSLSLSP light: not shown
140 nM	IgG1-F1059 (antibody, VH3-IgG1 with Fc substitutions (EU numbering) + L(WT)-CK) heavy: QVQLQESGPGLVKPSETLSLTCAVSGHSISHDHAWSWVRQPPGEGLEWIGFISYSGITNYNPSLQGRVTISRDNSKNTLYLQMNSLRAEDTAVYYCARSLARTTAMDYWGEGTLVTVSSASTKGPSVFPLAPSSKSTSGGTAALGCLVKDYFPEPVTVSWNSGALTSGVHTFPAVLQSSGLYSLSSVVTVPSSSLGTQTYICNVNHKPSNTKVDKKVEPKSCDKTHTCPPCPAPELLGGPSVFLFPPKPKDTLYISRTPEVTCVVVDVSHEDPEVKFNWYVDGVEVHNAKTKPREEQYNSTYRVVSVLTVLHQDWLNGKEYKCKVSNKALPAPIEKTISKAKGQPREPQVYTLPPSRDELTKNQVSLTCLVKGFYPSDIAVEWESNGRPENNYKTTPPVLDSDGSFFLYSKLTVDKSRWQQGNVFSCSVMHEALHYHVTQKSLSLSP light: not shown
130 nM	IgG1-F1067 (antibody, VH3-IgG1 with Fc substitutions (EU numbering) + L(WT)-CK) heavy: QVQLQESGPGLVKPSETLSLTCAVSGHSISHDHAWSWVRQPPGEGLEWIGFISYSGITNYNPSLQGRVTISRDNSKNTLYLQMNSLRAEDTAVYYCARSLARTTAMDYWGEGTLVTVSSASTKGPSVFPLAPSSKSTSGGTAALGCLVKDYFPEPVTVSWNSGALTSGVHTFPAVLQSSGLYSLSSVVTVPSSSLGTQTYICNVNHKPSNTKVDKKVEPKSCDKTHTCPPCPAPELLGGPSVFLFPPKPKDTLYISRTPEVTCVVVDVSHEDPEVKFNWYVDGVEVHNAKTKPREEQYNSTYRVVSVLTVLHQDWLNGKEYKCKVSNKALPAPIEKTISKAKGQPREPQVYTLPPSRDELTKNQVSLTCLVKGFYPSDIAVEWESNGQPENNYKTTPPVLDSDGSFFLYSKLTVDKSRWQQGNVFECSVMHEALHYHVTQKSLSLSP light: not shown
120 nM	IgG1-F1061 (antibody, VH3-IgG1 with Fc substitutions (EU numbering) + L(WT)-CK) heavy: QVQLQESGPGLVKPSETLSLTCAVSGHSISHDHAWSWVRQPPGEGLEWIGFISYSGITNYNPSLQGRVTISRDNSKNTLYLQMNSLRAEDTAVYYCARSLARTTAMDYWGEGTLVTVSSASTKGPSVFPLAPSSKSTSGGTAALGCLVKDYFPEPVTVSWNSGALTSGVHTFPAVLQSSGLYSLSSVVTVPSSSLGTQTYICNVNHKPSNTKVDKKVEPKSCDKTHTCPPCPAPELLGGPSVFLFPPKPKDTLYISRTPEVTCVVVDVSHEDPEVKFNWYVDGVEVHNAKTKPREEQYNSTYRVVSVLTVLHQDWLNGKEYKCKVSNKALPAPIEKTISKAKGQPREPQVYTLPPSRDELTKNQVSLTCLVKGFYPSDIAVEWESNGQEENNYKTTPPVLDSDGSFFLYSKLTVDKSRWQQGNVFSCSVMHEALHYHVTQKSLSLSP light: not shown
140 nM	IgG1-F1069 (antibody, VH3-IgG1 with Fc substitutions (EU numbering) + L(WT)-CK) heavy: QVQLQESGPGLVKPSETLSLTCAVSGHSISHDHAWSWVRQPPGEGLEWIGFISYSGITNYNPSLQGRVTISRDNSKNTLYLQMNSLRAEDTAVYYCARSLARTTAMDYWGEGTLVTVSSASTKGPSVFPLAPSSKSTSGGTAALGCLVKDYFPEPVTVSWNSGALTSGVHTFPAVLQSSGLYSLSSVVTVPSSSLGTQTYICNVNHKPSNTKVDKKVEPKSCDKTHTCPPCPAPELLGGPSVFLFPPKPKDTLYISRTPEVTCVVVDVSHEDPEVKFNWYVDGVEVHNAKTKPREEQYNSTYRVVSVLTVLHQDWLNGKEYKCKVSNKALPAPIEKTISKAKGQPREPQVYTLPPSRDELTKNQVSLTCLVKGFYPSDIAVEWESNGQPENNYKTTPPVLDSDGSFFLYSKLTVDKSRWQQGNVFSCSVMHEALHYHVTEKSLSLSP light: not shown
140 nM	IgG1-F1066 (antibody, VH3-IgG1 with Fc substitutions (EU numbering) + L(WT)-CK) heavy: QVQLQESGPGLVKPSETLSLTCAVSGHSISHDHAWSWVRQPPGEGLEWIGFISYSGITNYNPSLQGRVTISRDNSKNTLYLQMNSLRAEDTAVYYCARSLARTTAMDYWGEGTLVTVSSASTKGPSVFPLAPSSKSTSGGTAALGCLVKDYFPEPVTVSWNSGALTSGVHTFPAVLQSSGLYSLSSVVTVPSSSLGTQTYICNVNHKPSNTKVDKKVEPKSCDKTHTCPPCPAPELLGGPSVFLFPPKPKDTLYISRTPEVTCVVVDVSHEDPEVKFNWYVDGVEVHNAKTKPREEQYNSTYRVVSVLTVLHQDWLNGKEYKCKVSNKALPAPIEKTISKAKGQPREPQVYTLPPSRDELTKNQVSLTCLVKGFYPSDIAVEWESNGQPENNYKTTPPVLDSDGSFFLYSKLTVDKSRWQQGNSFSCSVMHEALHYHVTQKSLSLSP light: not shown
